# Test results taken from paper PMC7954794, “Protein context shapes the specificity of SH3 domain-mediated interactions in vivo” (Nature Communications, 2021).
# B1: LSB1 (protein, UniProt P53281 2-241, looked up)
# LAS seventeen-binding protein …: SASLVNRSLKNIRNELEFLKESNVISGDIFELINSKLPEKWDGNQRSPQNADTEEYVEALYDFEAQQDGDLSLKTGDKIQVLEKISPDWYRGKSNNKIGIFPANYVKPAFTRSASPKSAEAASSSTVSRPSVPPPSYEPAASQYPSQQVSAPYAPPAGYMQAPPPQQQQAPLPYPPPFTNYYQQPQQQYAPPSQQAPVEAQPQQSSGASSAFKSFGSKLGNAAIFGAGSAIGSDIVNSIF
# B2: LSB3 (protein)
# chain: MGINNPIPRSLKSETKKAAKILASFVKPNQVFGADQVIPPDVLKRAKGLAIITILKAGFLFSGRAGSGVIVARLKDGTWSAPSAIAMAGAGAGGMVGIELTDFVFILNTQDAVKSFSEFGTITLGGNVSVSAGPLGRSAEAAASASAGGVAAVFAYSKSKGLFAGVSVEGSAIIERREANRKFYGDNCTAKMILSGRIRPPPAVDPLFRVLESRAFNYRPSNGGRGSFDDDEDDYYDDDDYYNDIPSSFSSTDASSTRPNTRSTRRRAQSGSRYTFDDDDDDDDYGTGYSRNSRLAPTNSGGSGGKLDDPSGASSYYASHRRSGTAQSRARSSRNRWADDEYDDYDDDYESGYRRGNGRDRTKDREVDDLSNRFSKSRISSASTPQTSQGRFTAPTSPSTSSPKAVALYSFAGEESGDLPFRKGDVITILKKSDSQNDWWTGRVNGREGIFPANYVELV
# modifications: left off: DHFR F[3], C-terminal, kept
# B3: HSE1 (protein, UniProt P38753 2-452, looked up)
# Class E vacuolar …: SSSAIKIRNALLKATDPKLRSDNWQYILDVCDLVKEDPEDNGQEVMSLIEKRLEQQDANVILRTLSLTVSLAENCGSRLRQEISSKNFTSLLYALIESHSVHITLKKAVTDVVKQLSDSFKDDPSLRAMGDLYDKIKRKAPYLVQPNVPEKHNMSTQADNSDDEELQKALKMSLFEYEKQKKLQEQEKESAEVLPQQQQQHQQQNQAPAHKIPAQTVVRRVRALYDLTTNEPDELSFRKGDVITVLEQVYRDWWKGALRGNMGIFPLNYVTPIVEPSKEEIEKEKNKEAIVFSQKTTIDQLHNSLNAASKTGNSNEVLQDPHIGDMYGSVTPLRPQVTRMLGKYAKEKEDMLSLRQVLANAERSYNQLMDRAANAHISPPVPGPALYAGMTHANNTPVMPPQRQSYQSNEYSPYPSNLPIQHPTNSANNTPQYGYDLGYSVVSQPPPGYEQ
# Test system: growth of yeast strains under 51 stress conditions
# Test: Growth assays in 51 stress conditions (Fig. 1E-F, S2D, S5B)
# Type: cell-based, Saccharomyces cerevisiae
# Design: key to Growth (Fig. S2D) / growth of ABP1 SH3-swapped strains in stress condition: log2 colony size, average of median per strain (growth score)
# Details: Bathophenanthroline.0.1uM; ABP1 SH3-swapped strains
# Method in brief: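 Yeast WT, SH3-deleted, KO, SH3-swapped and SH3-shuffled strains pinned in 1536 format, 12 replicates each; pregrown on YPD 2 days at 30 °C, then replicated onto 51 media at 37 °C and imaged every 2 h. Growth score = mean of per-plate median log2 colony size at 74 h.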
row,Molecule,Growth (Fig. S2D)
1,B1,10.7989
2,B2,10.8613
3,B3,10.8649

# Same assay, conditions: Bathophenanthroline.10uM; ABP1 SH3-swapped strains
row,Molecule,Growth (Fig. S2D)
1,B1,10.6305
2,B2,10.7004
3,B3,10.6324

# Same assay, conditions: Bathophenanthroline.1uM; ABP1 SH3-swapped strains
row,Molecule,Growth (Fig. S2D)
1,B1,10.7471
2,B2,10.8044
3,B3,10.7994

# Same assay, conditions: CaCl2.100mM; ABP1 SH3-swapped strains
row,Molecule,Growth (Fig. S2D)
1,B1,10.8093
2,B2,10.8415
3,B3,10.826

# Same assay, conditions: CaCl2.250mM; ABP1 SH3-swapped strains
row,Molecule,Growth (Fig. S2D)
1,B1,10.7989
2,B2,10.752
3,B3,10.8072

# Same assay, conditions: CaCl2.500mM; ABP1 SH3-swapped strains
row,Molecule,Growth (Fig. S2D)
1,B1,10.2904
2,B2,10.2861
3,B3,10.2874

# Same assay, conditions: Caffein.10mM; ABP1 SH3-swapped strains
row,Molecule,Growth (Fig. S2D)
1,B1,10.1077
2,B2,10.1331
3,B3,10.0363

# Same assay, conditions: Caffein.2mM; ABP1 SH3-swapped strains
row,Molecule,Growth (Fig. S2D)
1,B1,10.9656
2,B2,11.0359
3,B3,11.0184

# Same assay, conditions: CdCl2.100uM; ABP1 SH3-swapped strains
row,Molecule,Growth (Fig. S2D)
1,B1,9.41
2,B2,9.517
3,B3,9.591

# Same assay, conditions: CdCl2.10uM; ABP1 SH3-swapped strains
row,Molecule,Growth (Fig. S2D)
1,B1,10.8732
2,B2,10.8992
3,B3,10.9135

# Same assay, conditions: CdCl2.50uM; ABP1 SH3-swapped strains
row,Molecule,Growth (Fig. S2D)
1,B1,9.85
2,B2,9.9
3,B3,9.882

# Same assay, conditions: CuSO4.1mM; ABP1 SH3-swapped strains
row,Molecule,Growth (Fig. S2D)
1,B1,10.4529
2,B2,10.501
3,B3,10.4158

# Same assay, conditions: CuSO4.5mM; ABP1 SH3-swapped strains
row,Molecule,Growth (Fig. S2D)
1,B1,7.9447
2,B2,7.988
3,B3,7.9665

# Same assay, conditions: Cycloheximide.0.05.uM; ABP1 SH3-swapped strains
row,Molecule,Growth (Fig. S2D)
1,B1,11.0938
2,B2,11.1308
3,B3,11.0571

# Same assay, conditions: Cycloheximide.0.2.uM; ABP1 SH3-swapped strains
row,Molecule,Growth (Fig. S2D)
1,B1,10.6171
2,B2,10.6758
3,B3,10.6529

# Same assay, conditions: Cycloheximide.0.5.uM; ABP1 SH3-swapped strains
row,Molecule,Growth (Fig. S2D)
1,B1,10.0964
2,B2,10.143
3,B3,10.099

# Same assay, conditions: DMSO.2.; ABP1 SH3-swapped strains
row,Molecule,Growth (Fig. S2D)
1,B1,11.0559
2,B2,11.0244
3,B3,11.0462

# Same assay, conditions: DMSO.6.; ABP1 SH3-swapped strains
row,Molecule,Growth (Fig. S2D)
1,B1,9.9059
2,B2,9.802
3,B3,9.883

# Same assay, conditions: DMSO.8.; ABP1 SH3-swapped strains
row,Molecule,Growth (Fig. S2D)
1,B1,9.2023
2,B2,9.136
3,B3,9.238

# Same assay, conditions: Ethanol.2.; ABP1 SH3-swapped strains
row,Molecule,Growth (Fig. S2D)
1,B1,10.7659
2,B2,10.7759
3,B3,10.7698

# Same assay, conditions: Ethanol.6.; ABP1 SH3-swapped strains
row,Molecule,Growth (Fig. S2D)
1,B1,10.2982
2,B2,10.3185
3,B3,10.2684

# Same assay, conditions: Ethanol.8.; ABP1 SH3-swapped strains
row,Molecule,Growth (Fig. S2D)
1,B1,10.0154
2,B2,10.0689
3,B3,10.106

# Same assay, conditions: Galactose.2.; ABP1 SH3-swapped strains
row,Molecule,Growth (Fig. S2D)
1,B1,10.7736
2,B2,10.7876
3,B3,10.7486

# Same assay, conditions: Glycerol.2.; ABP1 SH3-swapped strains
row,Molecule,Growth (Fig. S2D)
1,B1,9.808
2,B2,9.905
3,B3,9.782

# Same assay, conditions: Hydroxyurea.25mM; ABP1 SH3-swapped strains
row,Molecule,Growth (Fig. S2D)
1,B1,10.7374
2,B2,10.8417
3,B3,10.7604

# Same assay, conditions: Hygromycin.190uM; ABP1 SH3-swapped strains
row,Molecule,Growth (Fig. S2D)
1,B1,11.0084
2,B2,11
3,B3,10.981

# Same assay, conditions: Hygromycin.19uM; ABP1 SH3-swapped strains
row,Molecule,Growth (Fig. S2D)
1,B1,10.9924
2,B2,10.9944
3,B3,10.9309

# Same assay, conditions: Hygromycin.95uM; ABP1 SH3-swapped strains
row,Molecule,Growth (Fig. S2D)
1,B1,10.9928
2,B2,11.0899
3,B3,11.0429

# Same assay, conditions: MMS.0.004.; ABP1 SH3-swapped strains
row,Molecule,Growth (Fig. S2D)
1,B1,10.965
2,B2,10.9826
3,B3,11.0045

# Same assay, conditions: MMS.0.02.; ABP1 SH3-swapped strains
row,Molecule,Growth (Fig. S2D)
1,B1,10.7457
2,B2,10.7326
3,B3,10.6778

# Same assay, conditions: MMS.0.04.; ABP1 SH3-swapped strains
row,Molecule,Growth (Fig. S2D)
1,B1,10.0868
2,B2,10.0186
3,B3,10.0151

# Same assay, conditions: Menadione.100uM; ABP1 SH3-swapped strains
row,Molecule,Growth (Fig. S2D)
1,B1,10.5379
2,B2,10.5511
3,B3,10.5782

# Same assay, conditions: Menadione.200uM; ABP1 SH3-swapped strains
row,Molecule,Growth (Fig. S2D)
1,B1,10.4102
2,B2,10.5189
3,B3,10.4179

# Same assay, conditions: Menadione.50uM; ABP1 SH3-swapped strains
row,Molecule,Growth (Fig. S2D)
1,B1,10.7973
2,B2,10.8398
3,B3,10.792

# Same assay, conditions: NaCl.0.25M; ABP1 SH3-swapped strains
row,Molecule,Growth (Fig. S2D)
1,B1,10.8176
2,B2,10.7826
3,B3,10.7546

# Same assay, conditions: NaCl.1M; ABP1 SH3-swapped strains
row,Molecule,Growth (Fig. S2D)
1,B1,9.837
2,B2,9.561
3,B3,9.884

# Same assay, conditions: Nitroquinoline.10uM; ABP1 SH3-swapped strains
row,Molecule,Growth (Fig. S2D)
1,B1,10.6531
2,B2,10.7432
3,B3,10.6974

# Same assay, conditions: Nitroquinoline.50uM; ABP1 SH3-swapped strains
row,Molecule,Growth (Fig. S2D)
1,B1,10.6066
2,B2,10.6203
3,B3,10.5671

# Same assay, conditions: Nystatin.0.01uM; ABP1 SH3-swapped strains
row,Molecule,Growth (Fig. S2D)
1,B1,10.9737
2,B2,11.0314
3,B3,11.0224

# Same assay, conditions: Nystatin.0.1uM; ABP1 SH3-swapped strains
row,Molecule,Growth (Fig. S2D)
1,B1,10.9631
2,B2,11.0473
3,B3,11.0326

# Same assay, conditions: Raffinose.2.; ABP1 SH3-swapped strains
row,Molecule,Growth (Fig. S2D)
1,B1,11.0015
2,B2,11.0154
3,B3,11.0272

# Same assay, conditions: Rapamycin.10nM; ABP1 SH3-swapped strains
row,Molecule,Growth (Fig. S2D)
1,B1,9.7845
2,B2,9.815
3,B3,9.925

# Same assay, conditions: Rapamycin.50nM; ABP1 SH3-swapped strains
row,Molecule,Growth (Fig. S2D)
1,B1,9.381
2,B2,9.462
3,B3,9.396

# Same assay, conditions: SC.pH3; ABP1 SH3-swapped strains
row,Molecule,Growth (Fig. S2D)
1,B1,10.3983
2,B2,10.4429
3,B3,10.4058

# Same assay, conditions: SC.pH6; ABP1 SH3-swapped strains
row,Molecule,Growth (Fig. S2D)
1,B1,10.9866
2,B2,11.0914
3,B3,10.9649

# Same assay, conditions: SDS.0.01.; ABP1 SH3-swapped strains
row,Molecule,Growth (Fig. S2D)
1,B1,10.9788
2,B2,10.9846
3,B3,10.9823

# Same assay, conditions: SDS.0.02.; ABP1 SH3-swapped strains
row,Molecule,Growth (Fig. S2D)
1,B1,10.9881
2,B2,11.0384
3,B3,10.9972

# Same assay, conditions: SDS.0.05.; ABP1 SH3-swapped strains
row,Molecule,Growth (Fig. S2D)
1,B1,10.872
2,B2,10.8514
3,B3,10.8418

# Same assay, conditions: Sorbitol.10mM; ABP1 SH3-swapped strains
row,Molecule,Growth (Fig. S2D)
1,B1,11.0061
2,B2,10.9664
3,B3,11.0121

# Same assay, conditions: Sorbitol.1mM; ABP1 SH3-swapped strains
row,Molecule,Growth (Fig. S2D)
1,B1,11.049
2,B2,11.0248
3,B3,11.0602

# Same assay, conditions: Sorbitol.5mM; ABP1 SH3-swapped strains
row,Molecule,Growth (Fig. S2D)
1,B1,10.9179
2,B2,10.914
3,B3,10.8937
